# In article PMC6739470, “Modular Protein Ligation: A New Paradigm as a Reagent Platform for Pre-Clinical Drug Discovery” (Scientific Reports, 2019):
# B1: sCD73flagACK-biotin (soluble CD73 truncated after S552, C-terminal flag-Ala, ligated to C[K-PEG2-Biotin]) (enzyme, human, UniProt P21589 27-552, looked up)
# chain: WELTILHTNDVHSRLEQTSEDSSKCVNASRCMGGVARLFTKVQQIRRAEPNVLLLDAGDQYQGTIWFTVYKGAEVAHFMNALRYDAMALGNHEFDNGVEGLIEPLLKEAKFPILSANIKAKGPLASQISGLYLPYKVLPVGDEVVGIVGYTSKETPFLSNPGTNLVFEDEITALQPEVDKLKTLNVNKIIALGHSGFEMDKLIAQKVRGVDVVVGGHSNTFLYTGNPPSKEVPAGKYPFIVTSDDGRKVPVVQAYAFGKYLGYLKIEFDERGNVISSHGNPILLNSSIPEDPSIKADINKWRIKLDNYSTQELGKTIVYLDGSSQSCRFRECNMGNLICDAMINNNLRHTDEMFWNHVSMCILNGGGIRSPIDERNNGTITWENLAAVLPFGGTFDLVQLKGSTLKKAFEHSVHRYGQSTGEFLQVGGIHVVYDLSRKPGDRVVKLDVLCTKCRVPSYDPLKMDEVYKVILPNFLANGGDGFQMIKDELLRHDSGDQDINVVSTYISKMKVIYPAVEGRIKFSTGS
# modifications: C-terminal Ala-Cys-Lys after the flag tag (Ala from the construct, Cys-Lys dipeptide added by expressed protein ligation); PEG2-biotin on the epsilon-amino group of the lysine
# notes: soluble CD73 (5'-nucleotidase), truncated after residue S552; Uniprot P21589; Chain order: CD73(to S552)-flag-Ala-Cys-Lys(PEG2-biotin); Secreted protein; also called CD73 labeled with CK-biotin; sCD73flagACK-label; source: HEK293 cells transduced with BacMam, secreted as GyrA-CBD fusion; captured on chitin resin, ligated in 36 mM MESNA, sized on Superdex 200; not shown: FLAG, C-terminal, kept
# B2: sCD73-flag-CK-fluorescein (soluble CD73 truncated after S552, C-terminal flag-Ala, ligated to C[K-fluorescein]) (enzyme, human, UniProt P21589 27-552, looked up)
# chain: WELTILHTNDVHSRLEQTSEDSSKCVNASRCMGGVARLFTKVQQIRRAEPNVLLLDAGDQYQGTIWFTVYKGAEVAHFMNALRYDAMALGNHEFDNGVEGLIEPLLKEAKFPILSANIKAKGPLASQISGLYLPYKVLPVGDEVVGIVGYTSKETPFLSNPGTNLVFEDEITALQPEVDKLKTLNVNKIIALGHSGFEMDKLIAQKVRGVDVVVGGHSNTFLYTGNPPSKEVPAGKYPFIVTSDDGRKVPVVQAYAFGKYLGYLKIEFDERGNVISSHGNPILLNSSIPEDPSIKADINKWRIKLDNYSTQELGKTIVYLDGSSQSCRFRECNMGNLICDAMINNNLRHTDEMFWNHVSMCILNGGGIRSPIDERNNGTITWENLAAVLPFGGTFDLVQLKGSTLKKAFEHSVHRYGQSTGEFLQVGGIHVVYDLSRKPGDRVVKLDVLCTKCRVPSYDPLKMDEVYKVILPNFLANGGDGFQMIKDELLRHDSGDQDINVVSTYISKMKVIYPAVEGRIKFSTGS
# modifications: C-terminal Ala-Cys-Lys after the flag tag (Ala from the construct, Cys-Lys dipeptide added by expressed protein ligation); fluorescein on the epsilon-amino group of the lysine
# notes: soluble CD73 (5'-nucleotidase), truncated after residue S552; Uniprot P21589; Chain order: CD73(to S552)-flag-Ala-Cys-Lys(fluorescein); Secreted protein; also called CD73 EPL fluorescein labeled; CD73 labeled with CK-fluorescein; source: HEK293 cells transduced with BacMam, secreted as GyrA-CBD fusion; captured on chitin resin, ligated in 36 mM MESNA, sized on Superdex 200; not shown: FLAG, …
# Biological target: the molecule itself
# Experiment: SEC; Superdex 200 column, final labeled products, compared with MW standards; no aggregate peak observed
row,Protein,stoichiometry N
1,B1,2
2,B2,2
